Measured values published in paper PMC7039436.

Target: mono-ubiquitinated human FANCD2 (ubiquitin on Lysine 561) (human) (UniProt Q9BXW9)
Test: biotin affinity purification with 3C protease elution; in vitro ubiquitination reaction with Avi-ubiquitin loaded on avidin agarose, 2 hrs 4 °C, washed with 10 CV 50 mM Tris-HCl pH 7.4, 150 mM NaCl, 10% glycerol, 1 mM DTT; eluted overnight with 100 nM GST-HRV-3C; Coomassie gel

## mono-ubiquitinated human FANCI (ubiquitin on Lysine 523) (from UniProt Q9NVI1 1-1328; P0CG47 1-76) (natural protein)
  stoichiometry N: 1
